Experimental data as given in a protein production outcome set (Wang et al. 2014).

Experiment: label from the status in PepcDB records
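Further: failed if final PepcDB status was selected cloned or expressed and not failed if soluble or beyond.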

| Sequence | protein production |
| --- | --- |
| ISPGAAGGAEDGFFVPPTKGTSPTQIWCNNSQLPVDHILAGSFETAMRLLHDQVGVIQFGPYKQLFLQTYARGRTTYQALPCLPSMYGYPNRNWKDAGLKNGVPAVGLKLNDLIQRLQLCYQLTTVGKFEEAVEKFRSILLSVPLLVVDNKQEIAEAQQLITICREYIVGLSVETERKKLPKETLEQQKRICEMAAYFTHSNLQPVHMILVLRTALNLFFKLKNFKTAATFARRLLELGPKPEVAQQTRKILSACEKNPTDAYQLNYDMHNPFDICAASYRPIYRGKPVEKCPLSGACYSPEFKGQICRVTTVTEIGKDVIGLRISPLQFR | failed |
| MMQSRRVQESLVGLVILAGLATLGVGLLWLRGNLAGANSYTLEVELDTAPGLAVGTQVRYRGVQVGRVTAIGFDANGVQVSVRINNVLIPRRAVPEIRQSGFIGQAFLDFTPKERVPEIPEGVTAFAPKCQPELVYCNGDRVTGVRTASLEDLVRAATRFTTALEESGLINNANTLILGATRIVNRADQSLTKVTTALDSFNALSNQARAELRNFGIAAQAVTRAANQISEIVEVNRNTINSSLRNIDSAARELRTTLKALHPLTNQLEQGELLANLDALIKNGAEAAANLNKVSGALSSPLIMLSIAQTLDAARATFINAQKLTNDLLKLTSDPSFQSDLRRLIQILRRLLASSQDLEQQFLALHATSLGEAHEPMPAISAPTAAAKPTKEEEPEP | failed |
| LTGFQNYLNSIIDSMPSALIALDEQLYVTQWNQEASALSGTRLDEALNQPIFLAFEPLKPFLPQLKETVEQHTVTKVERVTWFKDEEPKHYALTFYPLMGGAGRGVVIRIDDITQRLSLEEMMVQSEKMLSVGGLAAGMAHEINNPLGAI | failed |
| MRPPLIERYRNLLPVSEKTPVISLLEGSTPLIPLKGPEEARKKGIRLYAKYEGLNPTGSFKDRGMTLAVSKAVEGGAQAVACASTGNTAASAAAYAARAGILAIVVLPAGYVALGKVAQSLVHGARIVQVEGNFDDALRLTQKLTEAFPVALVNSVNPHRLEGQKTLAFEVVDELGDAPHYHALPVGNAGNITAHWMGYKAYHALGKAKRLPRMLGFQAAGAAPLVLGRPVERPETLATAIRIGNPASWQGAVRAKEESGGVIEAVTDEEILFAYRYLAREEGIFCEPASAAAMAGVFKLLREGRLEPESTVVLTLTGHGLKDPATAERVAELPPPVPARLEAVAAAAGLL | not failed |
| MIKKNNLILIKLKNSMKKMIKIAFVAAFVAIAGYGVYTNQKSETLSDLTLANVEALAGGESGGYYCCSPYSYECYRIVGGGIVHGLRLPLPC | failed |
| MKILIVSNTALGDTILSTPLFRETRLALPKAHITALLNPVNAMLFETNPYLDKIELYGGRWRGFLGAWWKLWRRGFDVALLGHSNDPQITPLCLLLGISKIIKIPNHKNPWQRFHHNPLEHHHHHH | failed |
| MRVVVTGATGFVGQQVVKALSDRGDQVVALVRSPGKAAKQFAGVPRVEWLGYTPKAAGDWFSALEGADAVIHLAGEPLANGRWTPQRKQEIYDSRVVGTQQLVQAIAQCQQRPRVLVSTSAIGYYGTSDTETFVETHAAGNDFLAKVCGDWEAAAQGVTELGVRLVILRFGIVLGEQGALAKLLLPFQLYLGGPLGSGQQWFSWIHQQDLVRLILTAVDQVGMQGVYNATAPEPLRMADFCRILAEVMQRPSWLPVPAPVLQLLLGEGADVVLKGQRVLPERTLATGFEFHYPNAKTALTNLLKPRYTEGSRLEHHHHHH | not failed |
| MGHHHHHHSHESVVPARMAEMARCIRERDFPSFAQLTMKDSNQFHATCLDTFPPISYLNAISWRIIHLVHRFNAHHGDTKVAYTFDAGPNAVIFTLDDTVAEFVAAVWHGFPPGSNGD | failed |
| MSLKRILIVDDDTAILDSTKQILEFEGYEVEIAATAGEGLAKIENEFFNLALFDIKLPDMEGTELLEKAHKLRPGMKKIMVTGYASLENSVFSLNAGADAYIMKPVNPRDLLEKIKEKLDEQEKEGHHHHHH | not failed |
| MKVYPKVSIVMPVYNSERYLAEAIESILDQTYNDFEFIIVDDGSTDESYNIISSYANKDNRIIVISREHRGLVDSLNEGINIARGKYIARMDADDISINNRIEKQFEFLELNKDVDILGTRIEAFGDIDEKQKTIYNSAFSIKFDSQNIEQVFLTSCAIPHPSVMFKKDSIVKLRGYRKEYDTAEDYDLWLRAIRNGYKIVRMDECLIKYRVHNKSKTAVEMFNPKMVEYTMKAKIDYINDTNKKDKVDYLIWGASTGGKLVKKVVESTTDKFNLIGFIDKYKEGEVDECRIYKPEDLMKLHSDYVFIATLPGKEEADEFLKNCGLKKFKEYISLVLEHHHHHH | failed |
| MEKEMEDKEEFDEGEIEYTSYAGEHHLPLIMSLVDQELSEPYSIFTYRYFVYLWPQLCFLAFHKGKCVGTIVCKMGDHRQTFRGYIAMLVVIKPYRGRGIASELVTRAIKAMMESGCEEVTLEAEVSNKGALALYGRLGFIRAKRLYHYYLNGMDAFRLKLLFPKPRVPQIPSQVQTQQEYETFPRPRVP | failed |
| MANAIRLPPEAYPMSIAAQKNDDDRQARALAALAEKPDGIVEAIAAKAEVAPAEILAILPQGAAVSAPADRFDAIWNEMRGWGEILMIVQTGDIVLEVPGHLPEGTESHGWFNIHGDSPIGGHIKKDNCAAITFVDRGFHGRRSCSVWFMNAAGGAMFKIFVRRDENKELLAGQLAKFEELRDGFRGLEHHHHHH | not failed |
| MSDAPTSPRFSAATSTRLLDHAQLEALCADYDGFLLDLWGVVMDGTEAFPGALAWLARRHAEGRPVWFLSNSSSSVAEMSAGLERLGIRRDWFAGITTSGQLTIDALLQTAEYRRGGIYLAGVGLAQQSWPAEIRERFVEDIAQAALIVGVGSFPQDELEQRFAPLRGATDLPFLCANPDRVVVSGGRTVYGAGMLAELFSEEGGQVSWYGKPDPAAFRIAQRQLEARGARHILFVGDSLVTDVPGALAARIDTLWLGATGIHREALGAEFNGALDEERVRSLLHGYPIRPHFAAPGLV | failed |
| MERRLTTILAADLSGYSRLMAADEEGTVTRLRHLFADIVRPDLSREGGRLIKTMGDGMLVEFASPVAALRSAVAILQQVARDQVETAPDTRMLFRVGIHLGDVISDGDDILGDAVNIAARLESLATPGGICISRSVHDQVRGKVDAELIELGPQPVKNIPDPVEVWRVGAEGIACAAEKPAVRAELPAVVILPFDNMSADPEQDFLADGIVEDVTTELSRFRTLTVIARNSAFAYKGSHKDVRQIAEELGVRYVVEGSVRRAGDRLRATAQLIDARTGAHVWADRWDRTMADLFDLQDELTAAILSGVEPELGAHERNLARRKPTDSLTAWEMCQKGYSEFTRYTDEGYSQAHAYYTRAIAADPDFALPHALLARLAWVKVITGRTRDPAAEISTGLDHAAQAIERDDRLEIGYVALGVLLAITGREQDAADALDKAEALNPNNAVLHFGRCHACLFMQRLDCDRLERAARTALRLNPKDPMAWGFWFQLGNAFTFRDIDAAEPEALAAYETACRFANADYFVFMATALKHAKLGNRDKAAHYLAQARERYPALTAEFWRRAFRFPIWSRWVAADEPNIQLLIDLGLPQK | failed |
| MFKSVAKLGKSPIFYLNSQRLIHIKTLTTPNENALKFLSTDGEMLQTRGSKSIVIKNTDENLINHSKLAQQIFLQCPGVESLMIGDDFLTINKDRMVHWNSIKPEIIDLLTKQLAYGEDVISKEFHAVQEEEGEGGYKINMPKFELTEEDEEVSELIEELIDTRIRPAILEDGGDIDYRGWDPKTGTVYLRLQGACTSCSSSEVTLKYGIESMLKHYVDEVKEVIQIMDPEQEIALKEFDKLEKKLESSKNTSHEK | failed |
| MTEQAQYRDPRLVILYDRLNRWGADDDFFLALANETPGCRLLDLGCGTGRLTTALARAGHQVTGLEPARASLEVAQRKPGAEAVCWLQGSAQDAPTAAFDLCLMTAHVAQVFVEDDAWQDVLQHIHRALVPGGRLSFDMRDPAARAWDTWDSAGKRERLTLLDGSEAETWCDVLDVAGPIVSGPVVHFAEHTRFLPGQDVLTSTSRLRFRREDELRASLQAAGFAVEQVYGGWHGEPVGTGCGELVVVARRPG | failed |
